Assay results from patent CN115521378A (NANJING JISHENG AOMA BIOLOGICAL PHARMACEUTICAL CO LTD, dated 2022).

Target: T1, PD-L1蛋白 (human, UniProt Q9NZQ7 19-238, limits assumed)
T1 construct: also called 人PD-L1蛋白; CD274
Test: competition ELISA: PD-L1 coated, biotinylated PD-1 at 1 ug/mL as competitor, HRP-streptavidin read-out

T1 sequence (Q9NZQ7 19-238 limits assumed): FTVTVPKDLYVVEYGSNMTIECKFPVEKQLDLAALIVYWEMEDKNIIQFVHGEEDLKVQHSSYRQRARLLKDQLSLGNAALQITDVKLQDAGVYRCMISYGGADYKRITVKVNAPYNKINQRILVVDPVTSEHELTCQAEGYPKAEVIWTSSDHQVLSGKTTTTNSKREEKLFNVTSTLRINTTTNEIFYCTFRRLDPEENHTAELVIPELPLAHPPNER

IC50: 1.23 nM
B1: 13H6D3 (antibody, V domains shown)
VH: QVQLQQPGADLVKPGASVKLSCKASGYTFTSNWMHWMKQRPGQGLDWIGMIHPNSAIKYNEKFKSRASLTADKSSSTAYMQLSSLTSEDSAVYYCARSYYGSSPYFFDYWGQGTTLTVSS
VL: DIQMTQTTSSLSASLGDRVTISCRASQDISKYLNWYQQKPDGTVKFLIYYTSRLHSGVPARFSGSGSGTDYFLTISNLEQEDVATYFCQQGDTLPWTFGGGTKLEIK
notes: Only variable domains are tied to the name; also called 克隆 13H6D3
